US20200199244A1 (published 2020)

B1: BMS3h-202-5 (other)
VH: EVQLLESGGGLVQPGGSLRLSCAASGFTFPTAEMLWVRQAPGKGLEWVSSISASGGSTYYADSVKGRFTISRDNSKNTLYLQMNSLRAEDTAVYYCAKEPVSYVATFDYWGQGTLVTVSS
notes: domain antibody (dAb): single human VH domain
B2: BMS3h-37-2 (other)
VH: EVQLLESGGGLVQPGGSLRLSCAASGFTFEWYEMQWVRRAPGKGLEWVSAISGDGYRTYYADSVKGRFTISRDNSKNTLYLQMNSLRAEDTAVYYCAKELGYFDYWGRGTLVTVSS
notes: as for B1
B3: BMS3h-37-9 (other)
VH: EVQLLESGGGLVQPGGSLRLSCVASGFTFEWYEMQWVRQAPGNGLEWISAISGDGYRTYYADSVKGRFTISRDNSKNTLYLQMNSLRAEDTAVYYCAKELGYFDYWGRGTLVTVSS
notes: as for B1
B4: BMS3h-37-5 (other)
VH: EVQLLESGGGLVQPGGSLRLSCAASGFTFEWYEMQWVRQAPGKGLEWISAISGDGYRTYYADSVKGRFTISRDNSKNTLYLQMNSLRAEDTAVYYCAKELGYFDYRVQGTLVTVSS
notes: as for B1
B5: BMS3h-38-1 (other)
VH: EVQLLGSGGGLVQPGGSLRLSCAASGFTFEEEEMIWVRQAPGKGLEWVSAISGSGGSTYYADSVKGRFTISRDNSKNTLYLQMNSLRAEDTAVYYCSKEPFRFDYWGQGTLVTVSS
notes: as for B1
B6: BMS3h-41-1 (other)
VH: EVQLLESGEGLVQPGGSLRLSCAASGFTFTEHEMIWVRQAPGKGLEWVSSISGNGANTYYADSVKGRFTISRDNSKNTLYLQMNSLRPEDTAVYYCAKEPLRFDYWGQGTLVTVSS
notes: as for B1
B7: BMS3h-38-3 (other)
VH: EVQLLASGGGLVQPGGSLRLSCAASGFTFEEEEMIWVRQAPGKGLEWISAISGSGGSTYYADSVKGRFTISRDNSKNTLYLQMNSLRAEDTAVYYCGKEPFRFDYWGQGTLVTVSS
notes: as for B1
B8: BMS3h-198-1 (other)
VH: EVQLLESGGGLVQPGGSLRLSCAASGSTIAGYEMWWVRQAPGKGLERVSAISGSGGSTYYADSVKGRFTISRDDSKNTLYLQMNSLRAEDTAVYYCARDPYSFDYWGQGTLVTVSS
notes: as for B1
B9: BMS3h-38-2 (other)
VH: EVQLLASGGGLVQPGGSLRLSCAASGFTFEEEEMIWVRQAPGKGLEWVSAISGSGGSTYYADSVKGRFTISRDNSKNTLYLQMNSLRAEDTAVYYCGKEPFRYDYWGQGTLVTVSS
notes: as for B1
B10: BMS3h-193-29 (other)
VL: DIQMTQSPSSLSASVGDRVTITCRASQTIERRLNWYQQKPGKAPKLLIYLATRLQSGVPSRFSGSGSGTDFTLTISSLQPEDFATYYCHQYESPPLTFGQGTKVEIKR
B11: BMS3h-193-25 (other)
VL: DIQMTQSPSSLSASVGDRVTITCRASQTIERRLNWYQQKPGKAPRLLIYLATRLQSGVPSRFSGSGSGTDFTLTISSLQPEDFATYYCHQYESPPLTFGQGTKVEIKR
notes: domain antibody (dAb): single human V kappa domain
B12: BMS3h-56-7 (other)
VH: EVQLLESGGGLVQPGGSLRLSCAASGFTFRDYEMWWVRQAPGKGLERVSAINPQGTRTYYADSVKGRFTISRDNSKNTLYLQMNSLRAEDTSVYHCAKPPFIFGDWGPGTLVTVSS
notes: as for B1
B13: BMS3h-56-9 (other)
VH: EVQLLESGGGLVQPGGSLRLSCAASGFTFRDYEMWWVRQAPGKGLERVSAINPQGTRTYYADSVMGRFTISRDNSKNTLYLQMNSLRAEDTAVYYCAKLPFMFDDRGQGTLVTVSS
notes: as for B1
B14: BMS3h-198-1 (other)
VH: EVQLLESGGGLVQPGGSLRLSCAASGSTIAGYEMWWVRQAPGKGLERVSAISGSGGSTYYADSVKGRFTISRDDSKNTLYLQMNSLRAEDTAVYYCARDPYSFDYWGQGTLVTVSS
B15: BMS3h-198-5 (other)
VH: EVQLLESGGGLVQPGGSLRLSCAASGFTFAGYEMWWVRQAPGKGLERVSAISGSGGSTYYADSVKGRFTISRDDSKNTLYLQMNSLRAEDTAVYHCAKEPYSYDYWGQGTLVTVSS
B16: BMS3h-198-19 (other)
VH: EVQLLESGGGLVQPGGSLRLSCAASGFTFAGYELWWVRQAPGKGLERVSAISGSGGSTYYADSVKGRFTISRDDSKNTLYLQMNSLRAEDTAVYYCARDPYSFDYRGQGTLVTVSS
B17: BMS3h-198-37 (other)
VH: EVQLLESGGGLVQPGGSLRLSCAASGFTFAGYELWWVRQAPGKGLERVSAISGSGGSTYYADSVKGRFTISRDDSKNTLYLQMNSLRAEDTAVYYCAKDPYSFDYRGQGTLVTVSS
notes: dAb, single VH
B18: BMS3h-198-38 (other)
VH: EVQLLESGGGLVQPGGSLRLSCAASGFTFAGYELWWVRQAPGKGLERVSAISGSGGSTYYADSVKGRFTISRDDSKNTLYLQMNSLRAEDTAVYYCARDPYSFDYWGQGTLVTVSS
notes: dAb, single VH
B19: BMS3h-198-2 (other)
VH: EVQPLESGGGLVQPGGSLRLSCAASGFTFAGYEMWWVRQAPGKGLERISAISGSGGSTYYADSVKGRFTISRDDSKNTLYLQMNSLRAEDTAVYYCARDPYSFDYWGQGTLVTVSS
B20: BMS3h-131-2 (other)
VL: DIQMTQSPSSLSASVGDRVTITCRADSSILWALAWYQQKPGKAPKLLIESSSGLQSGVPSRFSGSGSGTDFTLTISSLQPEDFATYYCVQNAVWPGTFGQGTKVEIKR
notes: as for B11
B21: BMS3h-43-1 (other)
VH: EVQLLESGGGLVQPGGSLRLSCTASGFTFNMYEMSWVRQAPGKGLEWVSGISRRGFTTYYADSVKGRFTISRDNSKNTLYLQMNSLRAEDTAVYYCAKEPITYDLRYARFDYSGQGTLVTVSS
notes: as for B1
B22: BMS3h-43-3 (other)
VH: EVQLLESGGGLVQPGGSLRLSCTASGFTFNMYEMSWVRQAPGKGLEWVSGISRRGFTTYYADSVKGRFTISRDNFKNTLYLQMNSLRAEDTAVYYCAKEPITYDMRYARFDYGGQGTLVTVSS
notes: as for B1

How the values were obtained:
[1] = biological target: T1, biotinylated human CD40 (BMS) (human, UniProt P25942 21-193, limits assumed, biotinylated (sites not given)); assay: BIAcore SPR, immobilised biotinylated human CD40, 1:1 fit;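 further: binding kinetics of dAbs flowed over the CD40 surface at 25 °C in HBS-EP, 300 s dissociation, signal corrected by reference cell and buffer blank, global Langmuir fit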
T1 construct: Ligand immobilised on the streptavidin BIAcore chip

human CD40 = human CD40 (human, UniProt P25942 21-277); assay: cell-based or functional assay
[2] = biological target: T2, human CD40 (BMS, CY24FEB06-01) (human, UniProt P25942 21-193); assay: ELISA RBA, competition with IZ-CD40L;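 further: Neutravidin-coated 384-well plate, dAb–human CD40 complex bound for 2 h at room temperature, absorbance read at 450 nm after HCl stop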
T2 construct: Soluble reagent of the bead and ELISA RBA; It is detected with an anti-human IgG (Fc) mAb, so it may be a CD40-Ig fusion
T2 sequence (P25942 21-193 limits assumed): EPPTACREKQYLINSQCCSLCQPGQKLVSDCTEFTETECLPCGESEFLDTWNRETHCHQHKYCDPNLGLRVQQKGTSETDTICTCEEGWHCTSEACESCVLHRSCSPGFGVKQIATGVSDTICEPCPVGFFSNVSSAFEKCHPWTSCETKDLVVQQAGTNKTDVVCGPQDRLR
Description: Clear walled High Bind, 384-well plates (Corning, UK) were coated with 25 μl of 1 μg/ml Neutravidin in 0.2 M carbonate-bicarbonate buffer, pH 9.4 overnight at 4° C. The following day, assay plates were washed with 0.1% (v/v) Tween PBS buffer, blocked with 1% (w/v) BSA in PBS for 1 hour at room temperature and washed again. […] Following washing of the assay plate, the dAb:human CD40 complex was incubated in the assay plate at room temperature for 2 hours with gentle agitation. […] Absorbance signal was measured using a SpectraMax® M5e plate reader (Molecular Devices) at 450 nm following neutralization with 1M HCl solution.

Chain of human CD40 (P25942 21-277 limits assumed): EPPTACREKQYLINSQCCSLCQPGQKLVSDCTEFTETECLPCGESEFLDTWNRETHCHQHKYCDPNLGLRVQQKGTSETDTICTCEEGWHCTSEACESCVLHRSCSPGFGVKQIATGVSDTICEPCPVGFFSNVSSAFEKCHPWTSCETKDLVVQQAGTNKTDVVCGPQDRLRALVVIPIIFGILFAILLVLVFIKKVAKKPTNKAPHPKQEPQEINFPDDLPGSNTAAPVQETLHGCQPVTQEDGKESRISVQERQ
T1 sequence (P25942 21-193 limits assumed): as the sequence (P25942 21-193 limits assumed) above

Row | Binder | Kd [1] | koff [1] | kon [1] | hIZCD40L-driven Human B Cell Proliferation EC50 (human CD40) | EC50 [2]
1 | B1 | 300 nM | 0.0013 s⁻¹ | 4400 M⁻¹ s⁻¹ | – | –
2 | B2 | 4 nM | 0.00041 s⁻¹ | 100000 M⁻¹ s⁻¹ | – | –
3 | B3 | 12 nM | 0.00018 s⁻¹ | 15000 M⁻¹ s⁻¹ | – | –
4 | B4 | 5.5 nM | 0.00022 s⁻¹ | 39000 M⁻¹ s⁻¹ | – | –
5 | B5 | 33 nM | 0.0011 s⁻¹ | 32000 M⁻¹ s⁻¹ | – | –
6 | B6 | 11 nM | 0.00056 s⁻¹ | 51000 M⁻¹ s⁻¹ | – | –
7 | B7 | 5.5 nM | 0.00041 s⁻¹ | 75000 M⁻¹ s⁻¹ | – | –
8 | B8 | 13 nM | 0.00018 s⁻¹ | 15000 M⁻¹ s⁻¹ | – | –
9 | B9 | 12 nM | 0.00075 s⁻¹ | 61000 M⁻¹ s⁻¹ | – | –
10 | B10 | – | – | – | 1380 nM | –
11 | B11 | 81 nM | 0.037 s⁻¹ | 460000 M⁻¹ s⁻¹ | – | –
12 | B12 | 3.5 nM | 0.00047 s⁻¹ | 130000 M⁻¹ s⁻¹ | – | –
13 | B13 | 2.6 nM | 0.00039 s⁻¹ | 150000 M⁻¹ s⁻¹ | – | –
14 | B14 | – | – | – | 64 nM | –
15 | B15 | – | – | – | 9 nM | –
16 | B16 | – | – | – | 19 nM | –
17 | B17 | – | – | – | – | 15.1 nM
18 | B18 | – | – | – | – | 7.2 nM
19 | B19 | – | – | – | 207 nM | –
20 | B20 | 21 nM | 0.0017 s⁻¹ | 79000 M⁻¹ s⁻¹ | – | –
21 | B21 | 140 nM | 0.00063 s⁻¹ | 4400 M⁻¹ s⁻¹ | – | –
22 | B22 | 19 nM | 0.00059 s⁻¹ | 31000 M⁻¹ s⁻¹ | – | –
